Results on five molecules are retold here after patent publication US20170183404A1 (VIB VZW, published 2017).

Test [1] addresses T1, truncDelta mMor1 reconstituted in liposomes (mouse, UniProt P42866 52-358).
T1 construct: The assayed protein lacks the N-terminal part before the TEV site and the C-terminal part after the 3C site; It was purified, doped with Dmt1-Dalda and reconstituted in DOPC/CHS/lipid A vesicles; also called truncDelta mMor1 liposome; recombinant mMOR1 reconstituted in liposomes
Description: ELISA (OD405), five-fold diluted periplasm, 10 µM Dmt1-Dalda; reference: mock liposomes. As to the method:
DNPP (Sigma, cat nr 71768) was used to develop the colorimetric signal. Absorbance was measured at OD405 nm and results are depicted in FIG. 6. […] All VHHs tested confirm specific binding to truncDelta mMor1 reconstituted in liposomes. As truncDelta mMor1 is truncated at its N- and C-terminus, most likely these VHHs interact with extracellular or intracellular Mor1 conformational epitopes.

Test [2] deals with T2, wild-type human Mor1 (human mu-type opioid receptor) (human, UniProt P35372 1-400).
T2 construct: Used as CHO membranes (Perkin Elmer ES-542-M400UA) in the radioligand assay and on transfected CHO cells in flow cytometry; also called WT hMor1/CHO; hMor1/CHO
As to the kind of experiment: displacement of 1 nM [3H]-diprenorphine from WT hMor1/CHO membranes by a concentration range of XA8635. As to the method: The mixture was incubated for 1 hour at RT and after washing, filter bound radioligand was measured.

Substitutions are numbered along the chain they refer to.

T1 sequence (P42866 52-358, tags or fused parts left off): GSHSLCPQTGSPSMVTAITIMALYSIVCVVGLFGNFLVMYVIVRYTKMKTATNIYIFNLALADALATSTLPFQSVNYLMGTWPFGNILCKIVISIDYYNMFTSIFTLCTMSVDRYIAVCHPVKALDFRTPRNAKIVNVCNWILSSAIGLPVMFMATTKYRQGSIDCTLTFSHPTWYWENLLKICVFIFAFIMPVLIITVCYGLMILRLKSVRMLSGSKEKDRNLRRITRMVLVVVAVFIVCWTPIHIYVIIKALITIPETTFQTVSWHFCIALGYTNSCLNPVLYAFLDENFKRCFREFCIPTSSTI
T2 sequence (P35372 whole entry): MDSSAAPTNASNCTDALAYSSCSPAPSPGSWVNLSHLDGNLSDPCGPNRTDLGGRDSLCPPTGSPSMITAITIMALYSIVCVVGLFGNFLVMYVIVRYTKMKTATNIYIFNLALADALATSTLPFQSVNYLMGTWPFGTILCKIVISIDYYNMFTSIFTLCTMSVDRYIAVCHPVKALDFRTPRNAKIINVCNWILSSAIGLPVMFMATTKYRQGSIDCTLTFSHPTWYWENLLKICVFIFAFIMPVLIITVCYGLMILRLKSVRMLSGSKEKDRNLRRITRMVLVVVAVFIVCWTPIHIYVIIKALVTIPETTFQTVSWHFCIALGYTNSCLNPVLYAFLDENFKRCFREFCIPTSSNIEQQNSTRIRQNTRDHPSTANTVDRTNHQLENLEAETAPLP

B1: XA8727 (VHH)
VHH: QVQLVESGGGLVQAGGSLRLSCAASGFTFDDYAIAWFRQAPGKEREGVSCISSSDGSTYYADSVKGRFTISNDNAKNTVYLQMNSLKPEDTAVYYCAADLSRSCGRGYRYLEVWGQGTQVTVSS
notes: Tested as periplasmic extract; also called 599D2; Profile III VHH
For B1, the “absorbance on truncDelta mMor1 liposomes relative to mock liposomes” value in test [1] was not below 3 fold.

B2: XA8643 (VHH)
VHH: QVQLVESGGGLVRPGGSLRLSCVDSERTSYPMGWFRRAPGKEREFVASITWSGIDPTYADSVADRFTISRDVANNTLYLQMNSLKHEDTAVYYCAARAPVGQSSSPYDYDYWGQGTQVTVSS
notes: Tested as periplasmic extract; also called 598G11; X8643
Take B2: the “absorbance on truncDelta mMor1 liposomes relative to mock liposomes” value in test [1] is not below 3 fold.

B3: XA8639 (VHH)
VHH: B2 VHH with I68T
notes: also called 598A7; Nb39
As for B3, in test [1], the “absorbance on truncDelta mMor1 liposomes relative to mock liposomes” value was not below 3 fold.

B4: XA8641 (VHH)
VHH: B2 VHH with E26G
notes: Tested as periplasmic extract; also called 598A2; Profile I VHH
Regarding B4, the “absorbance on truncDelta mMor1 liposomes relative to mock liposomes” value in test [1] is not below 3 fold.

B5: XA8635 (VHH)
VHH: QVQLVESGGGLVQAGGSLRLSCAASGSISSISTMGWYRQAPGNERELVAAITSGGSTNYADSVKGRFTISRDNAKNTVYLQMNSLKPEDTAVYYCNFKYYSGSYFYKSEYDYWGQGTQVTVSS
notes: Tested as periplasmic extract and as purified protein; also called 601H10; monovalent XA8635
With B5, the binding result in test [2] is reported as “binds”. Also, the “absorbance on truncDelta mMor1 liposomes relative to mock liposomes” value in test [1] was not below 3 fold.
